What was measured:
[1] = target: Alexa-488-labelled G-actin-ATP (rabbit) (UniProt P68135); experiment: AUC
[2] = target: α-actin from rabbit skeletal muscle, monomeric (G-actin) (rabbit) (UniProt P68135); experiment: pyrene-actin seeded elongation rates with profilin, fitted with G-actin sequestration by Vn-ExoY
[3] = target: α-actin from rabbit skeletal muscle, monomeric (G-actin) (rabbit) (UniProt P68135); experiment: pyrene-actin seeded elongation rates fitted to a G-actin sequestration model; initial barbed-end (spectrin-actin seeds) and pointed-end (gelsolin-actin seeds) growth rates, 1.5 μM G-actin-ATP-Mg, increasing Vn-ExoY^DM; 28 mM KCl, 2 mM MgCl2, 10 mM Tris-HCl pH 7.5, 2 mM ATP, 1 mM DTT; 25°C; KD from the fit of Eq 1 and 2

With “Trx-Vn-ExoY (Vn-ExoY fused to Thioredoxin) (domain or fragment)” as the substance, how does the Kd [1] read?
Its Kd is 11.7 µM.

What about the stoichiometry N [1] of the same substance?
The stoichiometry N was 1.

“Vn-ExoY^3412-3873 (wild type) (domain or fragment)” was tested. Which Kd [2] did it give?
The Kd was 12 to 14 µM.

With “Vn-ExoY^DM (Vn-ExoY^412-873 K528M/K535I, inactive double mutant) (domain or fragment)” as the substance, how does the Kd [3] read?
The Kd was 21 µM.

And the stoichiometry N [3]?
Its stoichiometry N is 1.

— article PMC10553838, “Functional and structural insights into the multi-step activation and catalytic mechanism of bacterial ExoY nucleotidyl cyclase toxins bound to actin-profilin” (PLOS Pathogens, 2023)
